The target in assay [1] is Human VSIG4-L-Fc (human). Put plainly: BLI cross-blocking on hVSIG4-L-Fc, competitor 12A12 first.
The target of assay [2] is Human VSIG4-L-Fc (human). Put plainly: BLI cross-blocking on hVSIG4-L-Fc, competitor 14C05 first.

Our source for the binding signal (nm shift) values is patent publication US20230348603A1.

Human VSIG4-L-Fc (human), sequence (chain, as listed by the source limits assumed): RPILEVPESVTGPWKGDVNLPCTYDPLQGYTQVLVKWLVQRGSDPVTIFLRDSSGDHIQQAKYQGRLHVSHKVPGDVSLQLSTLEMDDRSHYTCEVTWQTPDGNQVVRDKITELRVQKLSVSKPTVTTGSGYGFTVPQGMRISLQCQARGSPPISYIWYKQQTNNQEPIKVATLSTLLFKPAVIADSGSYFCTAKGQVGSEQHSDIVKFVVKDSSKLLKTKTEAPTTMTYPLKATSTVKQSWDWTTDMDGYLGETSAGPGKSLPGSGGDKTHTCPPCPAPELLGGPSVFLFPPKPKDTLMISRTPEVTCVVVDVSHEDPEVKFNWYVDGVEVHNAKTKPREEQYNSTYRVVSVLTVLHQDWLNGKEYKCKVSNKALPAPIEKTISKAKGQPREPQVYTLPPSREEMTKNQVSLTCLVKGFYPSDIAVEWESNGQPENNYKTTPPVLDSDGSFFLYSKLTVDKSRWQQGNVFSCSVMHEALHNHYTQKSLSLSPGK

With isotype control antibody (Table 16), the binding signal (nm shift) in assay [1] and in assay [2] was 0 nm in each case.
